Measured values published in patent US20250026849A1 (ARCELLX, published 2025).

T1: CD123 (Homo sapiens (Human), UniProt P26951 19-305, limits assumed)
T1 construct: The CD123 construct used in the ELISA is not described; also called CD123-Signal
T1 sequence: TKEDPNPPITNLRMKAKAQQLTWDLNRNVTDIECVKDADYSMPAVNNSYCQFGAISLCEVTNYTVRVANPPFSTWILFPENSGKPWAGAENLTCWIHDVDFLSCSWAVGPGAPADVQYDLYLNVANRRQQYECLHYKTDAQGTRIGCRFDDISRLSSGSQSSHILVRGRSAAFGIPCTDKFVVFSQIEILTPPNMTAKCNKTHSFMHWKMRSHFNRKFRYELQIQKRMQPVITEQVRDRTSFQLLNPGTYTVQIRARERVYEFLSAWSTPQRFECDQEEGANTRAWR


Target: T1, CD123
Test: ELISA
Parameters: unit not given here

| Binder | ELISA_avg |
| --- | --- |
| D domain of SEQ ID NO: 499 (designed binder) MGSWIFFKEQLAIIKWELEALGGSEAELAWFEDDIAAFEDDLQFYKGQGNPEVEALRKEAAAIRDELQAYRHN | 15 |
| D domain of SEQ ID NO: 532 (designed binder) MGSWYQFKHDLADIKYGLEALGGSEAELAWFEDDIADFELDLQYYKGKGNPEVEALRKEAAAIRDELQAYRHN | 4.7 |
| D domain of SEQ ID NO: 502 (designed binder) MGSWEEFKEDLAEIKVWLEALGGSEAELAWFEMGIADFEDGLQFYKGKGNPEVEALRKEAAAIRDELQAYRHN | 4.3 |
| D domain of SEQ ID NO: 503 (designed binder) MGSWHWFKEDLANIKDWLEALGGSEAELAWFEDNIADFEGDLQVYKGKGNPEVEALRKEAAAIRDELQAYRHN | 3.3 |
| D domain of SEQ ID NO: 508 (designed binder) MGSWSWFKEDLAEIKMELEALGGSEAELAYFEWYIAEFEFQLQHYKGKGNPEVEALRKEAAAIRDELQAYRHN | 4.8 |
| D domain of SEQ ID NO: 510 (designed binder) MGSWSWFKEDLADIKFELEALGGSEAELAWFELDIADFEQALQQYKGKGNPEVEALRKEAAAIRDELQAYRHN | 6.8 |
| D domain of SEQ ID NO: 511 (designed binder) MGSWSWFKEDLASIKAVLEALGGSEAELAFFESDIAEFEQELQYYKGKGNPEVEALRKEAAAIRDELQAYRHN | 6.9 |
| D domain of SEQ ID NO: 535 (designed binder) MGSWHWFKIVLADIKDGLEALGGSEAELAYFETTIADFEMDLQHYKGKGNPEVEALRKEAAAIRDELQAYRHN | 4.3 |
| D domain of SEQ ID NO: 504 (designed binder) MGSWFWFKEDLAFIKEDLEALGGSEAELAWFEDGIAFFEWDLQDYKGKGNPEVEALRKEAAAIRDELQAYRHN | 13.7 |
| D domain of SEQ ID NO: 506 (designed binder) MGSWHWFKEDLAIIKQDLEALGGSEAELATFEQWIAEFEWDLQEYKGKGNPEVEALRKEAAAIRDELQAYRHN | 5.5 |
| D domain of SEQ ID NO: 507 (designed binder) MGSWNWFKEDLAIIKMDLEALGGSEAELAWFEHNIAGFEFELQGYKGKGNPEVEALRKEAAAIRDELQAYRHN | 3.1 |
| D domain of SEQ ID NO: 505 (designed binder) MGSWQWFKEDLAEIKHDLEALGGSEAELAWFEDFIAQFEFDLQWYKGKGNPEVEALRKEAAAIRDELQAYRHN | 3.8 |
| D domain of SEQ ID NO: 514 (designed binder) MGSWNEFKDDLAMIKMTLEALGGSEAELAWFEHDIAEFEDDLQWYKGKGNPEVEALRKEAAAIRDELQAYRHN | 3.5 |
| D domain of SEQ ID NO: 515 (designed binder) MGSWTFFKDDLAEIKWMLEALGGSEAELAWFESDIAYFEDELQWYKGKGNPEVEALRKEAAAIRDELQAYRHN | 3.3 |
| D domain of SEQ ID NO: 513 (designed binder) MGSWEWFKSDLASIKWELEALGGSEAELAWFEHDIAEFEEDLQWYKGKGNPEVEALRKEAAAIRDELQAYRHN | 5.7 |
| D domain of SEQ ID NO: 516 (designed binder) MGSWSDFKDDLAEIKMILEALGGSEAELAYFENDIAWFEDDLQEYKGKGNPEVEALRKEAAAIRDELQAYRHN | 4.7 |
| D domain of SEQ ID NO: 496 (designed binder) MGSWETFKYELAEIKDYLEALGGSEAELAWFEDDIAEFEFELQYYKGKGNPEVEALRKEAAAIRDELQAYRHN | 4.4 |
| D domain of SEQ ID NO: 498 (designed binder) MGSWYVFKDELAEIKQFLEALGGSEAELAWFEDDIAEFETQLQHYKGKGNPEVEALRKEAAAIRDELQAYRHN | 9.9 |
| D domain of SEQ ID NO: 512 (designed binder) MGSWWEFKEDLAEIKWFLEALGGSEAELAWFEHDIAKFEFELQYYKGKGNPEVEALRKEAAAIRDELQAYRHN | 5.1 |
| D domain of SEQ ID NO: 509 (designed binder) MGSWSWFKQDLADIKIQLEALGGSEAELAWFEWDIAEFEFELQDYKGKGNPEVEALRKEAAAIRDELQAYRHN | 4 |
| D domain of SEQ ID NO: 497 (designed binder) MGSWNTFKYELAEIKHFLEALGGSEAELAMFEDDIAMFEWELQEYKGKGNPEVEALRKEAAAIRDELQAYRHN | 5 |
| D domain of SEQ ID NO: 495 (designed binder) MGSWVYFKDELADIKDFLEALGGSEAELAEFEEDIATFEYDLQWYKGKGNPEVEALRKEAAAIRDELQAYRHN | 4.6 |
| D domain of SEQ ID NO: 500 (designed binder) MGSWEFFKEVLAEIKYDLEALGGSEAELAWFETDIAGFEIDLQVYKGKGNPEVEALRKEAAAIRDELQAYRHN | 8.2 |
| D domain of SEQ ID NO: 501 (designed binder) MGSWVFFKEDLATIKNDLEALGGSEAELAWFEMMIADFEADLQYYKGKGNPEVEALRKEAAAIRDELQAYRHN | 3.1 |

Second part, the binder after the results:

| ELISA_avg | Binder |
| --- | --- |
| 8 | D domain of SEQ ID NO: 528 (designed binder) MGSWYDFKEDLADIKWMLEALGGSEAELAEFENVIAYFENDLQEYKGKGNPEVEALRKEAAAIRDELQAYRHN |
| 4.4 | D domain of SEQ ID NO: 534 (designed binder) MGSWNFFKYDLADIMAYLEALGGSEAELAFFEDEIANFEHDLQKYKGKGNPEVEALRKEAAAIRDELQAYRHN |
| 3.8 | D domain of SEQ ID NO: 533 (designed binder) MGSWYVFKDDLADIKYMLEALGGSEAELAWFEWEIANFEFDLQYYKGKGNPEVEALRKEAAAIRDELQAYRHN |
| 3.5 | D domain of SEQ ID NO: 521 (designed binder) MGSWAWFKEDLAEIKVFLEALGGSEAELAEFEVSIADFEYELQDYKGKGNPEVEALRKEAAAIRDELQAYRHN |
| 3.3 | D domain of SEQ ID NO: 527 (designed binder) MGSWDHFKNDLAWIKKHLEALGGSEAELAEFEAVIAYFELYLQGYKGKGNPEVEALRKEAAAIRDELQAYRHN |
| 11.1 | D domain of SEQ ID NO: 524 (designed binder) MGSWYIFKEDLAEIKEELEALGGSEAELAYFEEEIALFEMELQWYKGKGNPEVEALRKEAAAIRDELQAYRHN |
| 3.2 | D domain of SEQ ID NO: 526 (designed binder) MGSWQDFKEDLAWIKYELEALGGSEAELAFFEYDIAIFENNLQHYKGKGNPEVEALRKEAAAIRDELQAYRHN |
| 3.5 | D domain of SEQ ID NO: 536 (designed binder) MGSWHWFKIVLADIKDGLEALGGSEAELAYFETTIADFEMDLHHYKGKGNPEVEALRKEAAAIRDELQAYRHN |
| 3.2 | D domain of SEQ ID NO: 523 (designed binder) MGSWYDFKYDLAEIKMDLEALGGSEAELAQFEFDIAFFEEELQDYKGKGNPEVEALRKEAAAIRDELQAYRHN |
| 4.6 | D domain of SEQ ID NO: 522 (designed binder) MGSWYEFKFDLAEIKEQLEALGGSEAELALFEDDIAFFEYDLQNYKGKGNPEVEALRKEAAAIRDELQAYRHN |
| 10.1 | D domain of SEQ ID NO: 519 (designed binder) MGSWSFFKDDLAEIKYFLEALGGSEAELAMFEQTIAEFEYDLQDYKGKGNPEVEALRKEAAAIRDELQAYRHN |
| 3.5 | D domain of SEQ ID NO: 525 (designed binder) MGSWVLFKEELAYIKFELEALGGSEAELALFENVIAIFESNLQNYKGKGNPEVEALRKEAAAIRDELQAYRHN |
| 5.2 | D domain of SEQ ID NO: 517 (designed binder) MGSWSMFKDDLAEIKASLEALGGSEAELAWFEDDIAWFEDDLQHYKGKGNPEVEALRKEAAAIRDELQAYRHN |
| 3.6 | D domain of SEQ ID NO: 518 (designed binder) MGSWQYFKDDLAEIKMVLEALGGSEAELAWFEADIAMFEDDLQIYKGKGNPEVEALRKEAAAIRDELQAYRHN |
| 7 | D domain of SEQ ID NO: 529 (designed binder) MGSWYMFKEELADIKWYLEALGGSEAELAWFEDDIAGFEWDLQAYKGKGNPEVEALRKEAAAIRDELQAYRHN |
| 4 | D domain of SEQ ID NO: 530 (designed binder) MGSWYYFKDELADIKWDLEALGGSEAELAWFEMLIAQFELDLQWYKGKGNPEVEALRKEAAAIRDELQAYRHN |
| 5.7 | D domain of SEQ ID NO: 537 (designed binder) MGSWFMFKEELADIKDWLEALGGSEAELASFESYIAWFEQDLQWYKGKGNPEVEALRKEAAAIRDELQAYRHN |
| 3.1 | D domain of SEQ ID NO: 531 (designed binder) MGSWMYFKDTLADIKWYLEALGGSEAELAFFEDWIAEFEDDLQVYKGKGNPEVEALRKEAAAIRDELQAYRHN |
| 5 | D domain of SEQ ID NO: 520 (designed binder) MGSWMEFKEELAEIKYILEALGGSEAELAWFEQSIADFEYDLQDYKGKGNPEVEALRKEAAAIRDELQAYRHN |
